From patent US20190201542A1 (AbbVie / Abbott, published 2019)
Residue numbers refer to the chain shown, from its start.

T1: human ASCL1 (human, UniProt P50553 1-236, limits assumed)
T1 construct: Transcription factor; also called hASCL1; immobilized human ASCL1
T1 sequence (looked up): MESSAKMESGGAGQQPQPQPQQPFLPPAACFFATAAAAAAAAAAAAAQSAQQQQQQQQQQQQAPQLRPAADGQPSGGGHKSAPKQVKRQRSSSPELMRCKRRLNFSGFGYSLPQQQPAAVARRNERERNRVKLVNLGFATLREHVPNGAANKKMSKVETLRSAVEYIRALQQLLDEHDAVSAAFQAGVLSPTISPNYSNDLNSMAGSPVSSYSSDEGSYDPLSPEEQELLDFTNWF

T2: human DLL3 (human, UniProt Q9NYJ7 27-492, limits assumed)
T2 construct: also called hDLL3; DLL3 protein
T2 sequence: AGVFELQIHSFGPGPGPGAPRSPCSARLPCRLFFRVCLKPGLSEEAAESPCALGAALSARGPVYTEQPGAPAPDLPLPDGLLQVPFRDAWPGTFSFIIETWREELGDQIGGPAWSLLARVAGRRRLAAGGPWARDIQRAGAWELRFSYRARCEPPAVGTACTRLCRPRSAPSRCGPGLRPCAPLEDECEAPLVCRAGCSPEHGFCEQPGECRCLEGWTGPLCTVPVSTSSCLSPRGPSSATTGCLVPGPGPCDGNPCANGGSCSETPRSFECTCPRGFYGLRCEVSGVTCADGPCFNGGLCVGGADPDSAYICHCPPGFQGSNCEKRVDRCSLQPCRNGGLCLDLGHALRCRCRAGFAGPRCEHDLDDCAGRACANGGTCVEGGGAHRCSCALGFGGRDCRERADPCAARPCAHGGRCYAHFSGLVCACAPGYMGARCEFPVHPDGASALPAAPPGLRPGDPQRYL

B1: SC72.93 (antibody, V domains shown)
VH: QVQLQQSGAELVRPGASVTLSCKASGYIFIDYEMHWVKQTPVHGLEWIGSIDPETGDTVYNQKFKGKATLTADKSSSTAYMELRSLTSEDSAVYYCSRGGLDYWGQGTTLTVSS
VL: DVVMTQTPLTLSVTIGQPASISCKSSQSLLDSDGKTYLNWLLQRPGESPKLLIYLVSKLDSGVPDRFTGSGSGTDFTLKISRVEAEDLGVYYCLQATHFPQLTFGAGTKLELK
notes: murine mAb; same VL as SC72.2
B2: SC72.28 (antibody, V domains shown)
VH: DVQLQQSGAELVRPGALVKLSCKASGFNIKDYLIHWVKQRPEQGLEWIGCIDPENGNTIYDPRFQGKAKITSDTSSTTAYLRLTSLTSEDTAVYYCGRGGLDYWGQGTTLTVSS
VL: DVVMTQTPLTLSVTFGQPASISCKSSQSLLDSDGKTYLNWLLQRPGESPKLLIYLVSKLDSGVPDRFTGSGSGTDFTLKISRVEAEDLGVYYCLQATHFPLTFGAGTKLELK
notes: murine mAb
B3: SC72.52 (antibody, V domains shown)
VH: QVQLQQPGSVLVRPGASVKLSCKASGYTFTSYWMHWVKQRPGQGLEWIGEIYPNSGRTNYNEKFKGKATLTVDTSSSTAYVDLSSLTSEDSAVYYCHYYDDNYGYWGQGTTLTVSS
VL: DIVITQDELSNPVTSGESVSISCRSSKSLLYKDGKTYLNWFLQRPGQSPQLLIYLMSTRASGVSDRFSGSGSGTDFTLEISRVKAEDVGVYYCQQFVEYPLTFGAGTKLELK
notes: murine mAb
B4: SC72.63 (antibody, V domains shown)
VH: EVQLLQSGPELVKPGASVKMSCKASGYTLTDYNLHWVKQSHAKSLEWIGYINPYNGVTSYNQRFKGKATLTVNKSSSTAFMEFRSLTSEDSAVYYCVSLYYGDDPFACWGQGTLVTVST
VL: DIQMTQSPASLSASVGETVTMTCRASENIYSNLAWYQQKQGKSPQLLVYAATNLADDVPSRFSGSGSGTQFSLKINSLQPEDFGIYYCHHFYGSPLTFGAGTKLELK
notes: murine mAb
B5: SC16.132 (antibody, V domains shown)
VH: QVQLKESGPGLVAPSQSLSITCTVSGFSLTDYGVSWIRQPPGKGLEWLGVVWGGGSTYYNSALKSRLSITKDNSKSQVFLKMNSLQTDDTAMYYCAKQRGQYGAYWGQGTLVTVSA
VL: DIQMTQSPASQSASLGESVTITCLASQTIGTWLAWYQQKPGKSPQLLIYAATSLADGVPSRFSGSGSGTKFSFKISSLQAEDFVSYYCQQLYSTPWTFGGGTKLEIK
notes: murine mAb
B6: SC16.129 (antibody, V domains shown)
VH: B5 VH with V51I, T70S, K81E, M82L, M92I, Q98H, R99Y, Q101H, G103A
VL: B5 VL with W96Y
notes: murine mAb
B7: SC16.138 (antibody, V domains shown)
VH: B5 VH with T70S
VL: B5 VL with A50S
notes: murine mAb
B8: SC16.130 (antibody, V domains shown)
VH: EVQLQQSGPELVKPGASVKMSCKASGYTFTSYVMHWVKQKPGQGLEWIGYINPYNDGTEYNEKFKGKATLTSDKSSSTAYMELSSLTSEDSAVYYCARGVYDGYSYFDYWGQGTTLTVSS
VL: DIQLTQSPASLSASVGETVTITCRASGSIHNYLAWYQQKQGKSPQLLVYNAKTLVDGVPSRFSGSGSGTQYSLKINSLQPEDFGYYYCQHFWTTPWTFGGGTKLEIK
notes: murine mAb
B9: SC16.131 (antibody, V domains shown)
VH: QVQLKESGPGLVAPSQSLSITCTVSGFSLTNYGVHWVRQPPGKGLEWLGVIWAGGITNYNSALMSRLSISEDNSKSQVFLKMNSLQTDDTAMYYCARNLGPYAMDYWGQGTSVTVSS
VL: DIQMNQSPSSLSASLGDTITITCHVSQNINVWLSWYQQKPGNIPKLLIQKASNLHTGVPSRFSGSGSGTGFTLTISSLQPEDIATYYCQQGQSYPFTFGSGTKLEIK
notes: murine mAb
B10: SC16.133 (antibody, V domains shown)
VH: QVQLKESGPGLVAPSQSLSITCTVSGFSLTNYAVHWVRQSPGKGLEWLGVIWSDGSTDYNAAFISRLSISKDNSKSQVFFKMNSLQADDTAMYYCARKKGGWFPWFAYWGQGTLVTVSA
VL: SIVMTQTPKFLLVSAGDRVTITCKASQSVSNDVAWYQQKPGQSPKLLIYCASNRYTGVPDRFTGSGYGTDFTFTISTVQAEDLAVYFCQQDYSSPLTFGAGTKLELK
notes: murine mAb
B11: SC16.135 (antibody, V domains shown)
VH: QVQLQQSGAELVRPGTSVKVSCKASGYAFTNYLIEWVKQRPGQGLEWIGVINPGSGGTNSNEKFKAKATLTADKSSSTAYMQLSSLTSADSAVYFCARSDYDYAFYAMDYWGQGTSVTVSS
VL: DIKMTQSPSSMYASLGERVTITCKASQDINRYLSWFQQKPGKSPKTLIYRANRLVDGVPSRFSGSGSGQDYSLTISSLEYEDMGIYYCLQYDEFPFTFGSGTKLEIK
notes: murine mAb
B12: SC16.136 (antibody, V domains shown)
VH: EVQLQQSGPELVKPGASVKMSCKASGYTFTSYVMHWVKQKPGQGLEWIGYINPYNDGTKYNEKFKGKATLTSDKSSSTAYMELSSLTSEDSAVYYCARDRSGYEDYYGMDYWGQGTSVTVSS
VL: B8 VL with L4M, S28N, Q45H, V55A, Y85S, T93S
notes: murine mAb
B13: SC16.137 (antibody, V domains shown)
VH: EVQLVESGGDLVKPGGSLKLSCAASGFTFSSYGMSWVRQTPDKRLEWVATISSGGSYTYYPDSVKGRFTISRDNAKNTLYLQMSSLKSEDTAMYYCARRRADAMDYWGQGTSVTVSS
VL: QIVLTQSPAIMSASLGEEITLTCSASSSVSYMHWYQQKSGTSPKLLIYSTSNLASGVPSRFSGSGSGTFYSLTISSVEAEDAADYYCHQWSSYHTFGGGTKLEIKR
notes: murine mAb
B14: SC16.140 (antibody, V domains shown)
VH: QVQLQQSGPELVRPGASVKMSCKASGYTFTSYWMHWVKQRPGQGLEWIGMIDPSNSETRLNQKFKDKATLNVDKSSNTAYMQLSSLTSEDSAVYYCAVMDYYFDYWGQGTTLTVSS
VL: DIVLTQSLASLAVSLGQRATISCRASKSVSTSGYSYMHWYQQKPGQPPKLLIYLASNLESGVPARFSGSGSGTDFTLNIHPVEDEDAATYYCQHSRELPFTFGGGTKLEIK
notes: murine mAb
B15: SC16.141 (antibody, V domains shown)
VH: QVQLKQSGPGLVAPSQSLFITCTVSGFSLTSYEINWVRQPPGKGLEWLGVIWTGGSTNYNSALISRLSISKDNSKSLVFLKMNSLQTDDTAIYYCVRGVYAMDYWGQGTSVTVSS
VL: B11 VL with R31S
notes: murine mAb
B16: SC16.143 (antibody, V domains shown)
VH: QVQLQQSGPELVKPGASVRISCKASGYTFTSYYIHWVKQRPGQGLEWIGWIYPGNGNTKYNEKFKGKATLTADKSSSTAYMQISSLTSEDSAVYFCARERWLLLWFAYWGQGTLVTVSA
VL: DVLMTQTPLSLPVSLGDQASISCRSSQSIVHSNGNTYLEWYLQKPGQSPKLLIYKVSNRFSGVPDRFSGSGSGTDFTLKISRVEAEDLGVYYCFQGSHVPLTFGAGTKLELK
notes: murine mAb
B17: SC16.144 (antibody, V domains shown)
VH: QIQLVQSGPELKKPGETVKISCKASGYTFTNYGMNWVKQAPGKGLKWVGWINTYTGEPTYADDFKGRFAFSLETSASTAYLQIDNLKNEDTATYFCARVGDYVGFDYWGQGTTLTVSS
VL: B10 VL with A34G, C50Y, T56N, L96W, A100G, L106I
notes: murine mAb
B18: SC16.147 (antibody, V domains shown)
VH: QIQLVQSGPELTKPGETVKISCKASGYTFTDYSLHWVKQALGKGLKWMGWINTETGEPAYADDFKGRFAFSLETSASTAYLQINDLKNEDTTTYFCGIYDGYAMDYWGQGTSVTVSS
VL: DIQMTQTASSLSASLGDRVTISCRASQDINNYLNWYQQKPDGTVKLLIYYTSRLHSGVPSRFSGSGSGTDYSLTISILEQEDIATYFCQQGDTLPWTFGGGTKLEIK
notes: murine mAb
B19: SC16.15 (antibody, V domains shown)
VH: QVQLQQSGAELAKPGASVKMSCKASGYTFTRYWIHWIKQRPGQGLEWIGYINPTTVYTEFNQNFKDKATLTADKSSTTASMQLSSLTSEDSAVYYCARGGSNFFDYWGQGTTLTVSS
VL: DIQMTQSPASLAASVGETVAITCRASENIYYNLAWYQQKQGKSPQLLIYTANSLEDGVPSRFSGSGSGTQYSLKINSMQPEDSATYFCKQAYDVPPTFGGGTKLEIK
notes: murine mAb
B20: SC16.148 (antibody, V domains shown)
VH: QIQLVQSGPELKKPGETVKISCKASGYTLTNYGMNWVKQAPGKGLKWMGWINTYTGEPTYADDFKGRFAFSLETSARIVYLQINNLKNEDTATYFCAKYEAHEGFVYWGQGTLVTVSA
VL: QIVLTQSPAIMSASPGEKVTMTCSASSSVSYMYWYQQKPGSSPRLLIYDTSNLASGVPVRFSGSGSGTSYSLTISRMEAEDTATYYCQEWSNNPLTFGDGTKLELK
notes: murine mAb

Key:
human ASCL1 = target: T1, human ASCL1; test: screen on immobilized hASCL1 or h293-hASCL1 cells
human DLL3 = target: T2, human DLL3; test: screen on immobilized hDLL3 or h293-hDLL3 cells
How it was run: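 After 10 days in culture, supernatants of single-cell hybridomas from human DLL3-immunized mice were tested on cells and by solid-phase ELISA. A flow-cytometry signal above the control level counted as binding. The ELISA used DLL3-His coated at 0.5 μg/ml, HRP anti-mouse IgG and TMB, with reading at OD 450.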

| Binder | binding result (human ASCL1) | binding result (human DLL3) |
| --- | --- | --- |
| B1 | binds |  |
| B2 | binds |  |
| B3 | binds |  |
| B4 | binds |  |
| B5 |  | binds |
| B6 |  | binds |
| B7 |  | binds |
| B8 |  | binds |
| B9 |  | binds |
| B10 |  | binds |
| B11 |  | binds |
| B12 |  | binds |
| B13 |  | binds |
| B14 |  | binds |
| B15 |  | binds |
| B16 |  | binds |
| B17 |  | binds |
| B18 |  | binds |
| B19 |  | binds |
| B20 |  | binds |
